Laboratory results from US20090197812.

Experiments:
Human I-κBα = target: T1, Human I-κBα
T1 chain: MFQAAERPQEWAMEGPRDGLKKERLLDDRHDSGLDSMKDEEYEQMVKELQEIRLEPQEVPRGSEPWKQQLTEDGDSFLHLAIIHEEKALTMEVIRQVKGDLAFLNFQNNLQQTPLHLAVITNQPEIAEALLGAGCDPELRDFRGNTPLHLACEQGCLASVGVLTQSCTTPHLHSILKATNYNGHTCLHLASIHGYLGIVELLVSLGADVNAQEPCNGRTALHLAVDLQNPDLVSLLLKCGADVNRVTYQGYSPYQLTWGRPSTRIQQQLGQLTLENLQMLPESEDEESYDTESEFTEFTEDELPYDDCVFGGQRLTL

[1] = target: mutant I-κBα, the phosphorylation sites of which were modified

B1: transglutaminase (guinea pig liver, Sigma) (protein)
chain: AEDLILERCDLQLEVNGRDHRTADLCRERLVLRRGQPFWLTLHFEGRGYEAGVDTLTFNAVTGPDPSEEAGTMARFSLSSAVEGGTWSASAVDQQDSTVSLLLSTPADAPIGLYRLSLEASTGYQGSSFVLGHFILLYNPRCPADAVYMDSDQERQEYVLTQQGFIYQGSAKFINGIPWNFGQFEDGILDICLMLLDTNPKFLKNAGQDCSRRSRPVYVGRVVSAMVNCNDDQGVLQGRWDNNYSDGVSPMSWIGSVDILRRWKDYGCQRVKYGQCWVFAAVACTVLRCLGIPTRVVTNFNSAHDQNSNLLIEYFRNESGEIEGNKSEMIWNFHCWVESWMTRPDLEPGYEGWQALDPTPQEKSEGTYCCGPVPVRAIKEGHLNVKYDAPFVFAEVNADVVNWIRQKDGSLRKSINHLVVGLKISTKSVGRDEREDITHTYKYPEGSEEEREAFVRANHLNKLATKEEAQEETGVAMRIRVGQNMTMGSDFDIFAYITNGTAESHECQLLLCARIVSYNGVLGPVCSTNDLLNLTLDPFSENSIPLHILYEKYGDYLTESNLIKVRGLLIEPAANSYVLAERDIYLENPEIKIRVLGEPKQNRKLIAEVSLKNPLPVPLLGCIFTVEGAGLTKDQKSVEVPDPVEAGEQAKVRVDLLPTEVGLHKLVVNFECDKLKAVKGYRNVIIGPA
polymerization of I-κβα on 4-12% NuPAGE (Human I-κBα): both the intact I-κBα and the mutant I-κBα, the phosphorylation sites of which were modified, were polymerized to high-molecular weight polymers, by transglutaminase | polymerization of I-κβα on 4-12% NuPAGE [1]: both the intact I-κBα and the mutant I-κBα, the phosphorylation sites of which were modified, were polymerized to high-molecular weight polymers, by transglutaminase
